# Literature values as cited in patent US20240269065A1, “Implantable Device for Release of Glucagon-Like Peptide-1 Receptor Agonist” (Celanese EVA Performance Polymers LLC, priority 2023, published 2024).
# Molecular target: GLP-1 receptor (Homo sapiens, UniProt P43220)
# Details: in vitro studies; compared with native GLP-1 and exenatide
# Chain of GLP-1 receptor (P43220 24-463, species assumed): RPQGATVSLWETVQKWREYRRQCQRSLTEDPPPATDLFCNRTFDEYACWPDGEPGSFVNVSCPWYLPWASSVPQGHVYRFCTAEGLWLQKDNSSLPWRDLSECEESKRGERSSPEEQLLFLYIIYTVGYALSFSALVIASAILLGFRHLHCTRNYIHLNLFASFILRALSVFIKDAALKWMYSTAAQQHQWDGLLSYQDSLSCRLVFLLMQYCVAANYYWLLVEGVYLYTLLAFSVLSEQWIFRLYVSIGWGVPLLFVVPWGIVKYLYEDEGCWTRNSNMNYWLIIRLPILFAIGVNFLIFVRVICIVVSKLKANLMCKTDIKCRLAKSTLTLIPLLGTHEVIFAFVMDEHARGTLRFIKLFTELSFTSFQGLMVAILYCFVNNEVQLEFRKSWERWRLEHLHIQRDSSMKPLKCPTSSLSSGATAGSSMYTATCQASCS
substance,measurement,value
Lixisenatide,affinity for the GLP-1 receptor relative to native GLP-1 and exenatide,four times greater affinity
